13 sequences from a protein production outcome set (Wang et al. 2014) can be followed below.

A short description of this data set: label from the status in PepcDB records.
“MKRKMLKRLLTSAFACMFIANGLITTTVRAVGPKTGEENQVLVPNLNPTPENLEVVGDGFKITSSINLVGEEEADENAVNALREFLTANNIEINSENDPNSTTLIIGEVDDDIPELDEALNGTTAENLKEEGYALVSNDGKIAIEGKDGDGTFYGVQTFKQLVKESNIPEVNITDYPTVSARGIVEGFYGTPWTHKDRLDQIKFYGENKLNTYIYAPKDDPYHREKWREPYPENEMQRMQELIDASAENKVDFVFGISPGIDIRFDGEAGEEDFNHLIAKAESLYDMGVRSFAIYWDDIQDKSAAKHAQVLNRFNEEFVKAKGDVKPLITVPTEYDTGAMVSNGQPRTYTRIFAETVDPSIEVMWTGPGVVTNEIPLSDAQLISGIYNRNMAVWWNYPVTDYFKGKLALGPMHGLDKGLNQYVDFFTVNPMEHAELSKISIHTAADYSWNMDNYDYDKAWNRAIDMLYGDLAEDMKVFANHSTRMDNKTWAKSGREDAPELRAKMDELWNKLSSKEDASALIEELYGEFARMEEACNNLKANLPEVALEECSRQLDELITLAQGDKASLDMIVAQLNEDTEAYESAKEIAQNKLNTALSSFAVISEKVAQSFIQEALSFDLTLINPRTVKITASSEETSGENAPASFASDGDMNTFWHSKWSSPAHEGPHHLTLELDNVYEINKVKYAPRQDSKNGRITGYKVSVSLDGENFTEVKTGTLEDNAAIKFIEFDSVDAKYVRLDVTDSVSDQANGRGKFATAAEVNVHGKLKEAAEVTGSVSLEALEEVQVGENIEVGVGIDELVNAEAFAYDFTLNYDENAFEYVEAISDDGVFVNAKKIEDGKVRVLVSSLTGEPLPAKEVLAKVVLRAEAKTEGSNLSVTNSSVGDGEGLVHEIAGTEKTVNIIEGTSPEIVVNPVRDFKASEINKKNVTVTWTEPETTEGLEGYILYKDGKKVAEIGKDETSYTFKKLNRHTIYNFKIAAKYSNGEVSSKESLTLRTAR”: the protein production result is reported as “failed”.

As for “MKRLIAATLVAAMGVSLLTGCGVSNKSHDNTQVGTTENSSDKAKNKEVKMHVWCSKDDVDITTQMIESFKEANKGTDFNIIIEESEDSDARDNILSNVHNGADVFPIADDQITSMVAGGALYEIEDVDAVKKANDESAVEAATIDGKLYGYPLTADNGYFMYYNKNYFSDSDVATLDGMLDIAGANGKYLTMDWSSGWYLYSFFGNTGLDFGVNDDGVTNHCNWNAIITDIKGVDIAQAMLDIAAKPGFKNCVQDDFIAGVQDGSIIAGVSGCWNAAKIKELWGDDYGAVKLPTYTCAGQQIQMSSFKGYKYMAVNAYTKYPEWANKLAQWFTNEDNQKLRFEMKNVGPANKAAAADDAVKKVPAIMAVMDQAQYGKLQRVGNSYWDAATEFGEKMAAGNPDNTDLQEIMDNLVAGITQSVAE”, the protein production result is reported as “failed”.

For the sequence “MKRLIVVYLLFISLNVLNAWAQKSPADYVNPIIGATTADEMAGSDHGLGKTFPGVCTPFGLVQLSPDTKTGGDNGPGYSWHHSTIEGFSFTHMSGIGWYGDLGNFLVMPTTGELHTFKGTEENPESGYRSRYSHDREVAKVDGYSVMLDDYGIQVELAAASRSGMMRFTYPQSEVSRIQIDLARRIGGTSTEQYVEVVDDYTIKGWMKCTPDGGGWGDGAGQGNYTAYFYCCFDRPLKNFGLWSADIPEGVERKNASNDDPAYHEYIKNAHVFPRKKIAQGKHLGFYTEFSTREGEQALLKCGISFVSIEGARKNLQSDISDWNFDGVRQRARRQWNEALSGVQVEGEEKDKTIFYTSLYHTMIDPRCFSDVDGAYPGADGKVHYADNFIYRTIFSGWDVFRSQFPLQTITNPRLVDDEINSLIQLAELSGKKYFPRWEFLNAYSGCMVGNPAVSVVADAYNKGIRNYDTRKALEYSLNTVRTFGNNEQGYTPDDLSKTLEYAYTDWCVSTMLRDMGREQEAVAFERKAQSYHQVWCDSVKWFRARSADGSWMPWKGRNVHWQGCIESNNYQQGWFVPHDLEGLISLMGKEYFERELVAFFEGADERFMWGDYYNHPNEPDHQVPFMLNYTSRPWLTQYWTRRICRNAYGDTVNGLCGNEDVGQMSAWYILAAMGFHPICPGNNRYELTSPVFRKVILSLDNRYYKGRTFTIIAHHNSPENVYIQSVSLNGKPLNRLWITHEEITKGGVLEFVLGKDPKH”, the protein production entry is on record as “failed”.

As for “MKRLLLCLIVIAQTILSLTAQTTEELSRMQTLIDHMAYTEALAWADSCSLQDEQALHLRAKALSELGRHPEAFAVYQRIVRMDPHDAVAYRLGAALQVDMQDYATAAEMLHQGYERTSDIPTGYDLAKLLVHIGQDSTALVITDRILRQDSLPPVIRLRAKALNKRQQPSQAIALLEEQMLRDSTDFLTLIDLATLYGQVEETRRQEQVTARYLQTDSLNVAVLLAHAESMMMLQEADSALHDYERIIGRGHFPTSFKDLFYCGLAYYKTGRWAVAEECFRRADESAFQQNYLTKYYLGMCAYRQKLWEEAEKRLQKLLDLIEPKTDRLTDVHTMLGRCANEQGRTETAISHLRYAIEYDSGNSEACLLLAQCFEKTGNRTGAIHMYRRVLDKERASTAKNDIEGFRRLAEARSRLSLLKADDSEDEETP”, the protein production entry is on record as “failed”.

As to “MKRLMTSLAALSLTAGLAHAQAADVPDNLEKLSNFQSTGATDFTFVEQGGDFADGIKRNLERIKLPQGFRIGLYAVVPDARHMAVGPQGIVTFVGTRKDKVWAVTDRNKDRVADEVKDFAPSLRFTIPNGPCFSKDGFLYIAEQNRVLLFPAAEFFYESGDVAAFNLVKQGELIPVEEESFNHTARVCDIGPDGMIYITLGQPFNVPAPEKRELYDKWGIGGIVRMKTDGTGREVFARGIRNSVGMDIDPETGNVWFTDNQVDGMGDDIPPGEINRATEPGQNFGFPWYGGGSIRTNEYKDEEPPADAVMPVVEMDAHAADLGMMFYTGSMFPEEYRGAIFSAQHGSWNRTTPVGARVMVTTLAEDGTATTKPFAEGWIDENGEYLGRPVDVAQLRDGSILVSDDLVGAIYRIWYQPE”, the protein production entry is on record as “failed”.

As for “MKRNIFSIGFISVVLFIVLGACVGLAASEALQGSEQEINSAFSNQITPVISGDYIVWQDERDGNWDIYMYDMSAGRTETSLFNGPKDEIEPAISGSRVVLADNRRGNYDIYMYDISTKKEVQVTSDKSEQKEPAISEDIIVWTDRRNQNTDIYMYDLTTKEETRITDDKADQSQPAVWGNIIVWKDTRNGNEDIYMYDISAGKESPVVMDSAAQTNPVIEGDYIVWEDRRAGNLDIYMYEISTGKEKPVCTDPSPQKTPAISDGRIVWADGRIKGTNIFIYDIATGQEKTVSTASEYESNPSIDGNRIVWQDKRKGAMDIFMFTEDASETESTAGEKTEAETGSKAPLGIYPVSAGVIAAYLMINSGKKGKRKT”, the protein production result is reported as “failed”.

As for “MKRPELIIFDWDGTLFDSVGQIVASLRFAADQFNQPLTDEAAQSIIGLGLPEVMQALFPQVPHLHQEILVHYGEHYVENSKHDAWFEGVAELLHDLKAQGIKLAVATGKSRRGLDRVLNKTQSHELFDITRAASETMSKPHPRMLEEILQVTQVEAQHAIMVGDSSYDLEMAKNIDMPRVGVSYGVHEVDVLQRYEPLTIVDSIAELHHYLTQLLQEKIHA”, the protein production result is on record as “failed”.

For “MKRRAGLGGSMRSVVGFLSQRGLHGDPLLTQDFQRRRLRGCRNLYKKDLLGHFGCVNAIEFSNNGGQWLVSGGDDRRVLLWHMEQAIHSRVKPIQLKGEHHSNIFCLAFNSGNTKVFSGGNDEQVILHDVESSETLDVFAHEDAVYGLSVSPVNDNIFASSSDDGRVLIWDIRESPHGEPFCLANYPSAFHSVMFNPVEPRLLATANSKEGVGLWDIRKPQSSLLRYGGNLSLQSAMSVRFNSNGTQLLALRRRLPPVLYDIHSRLPVFQFDNQGYFNSCTMKSCCFAGDRDQHHNWKWRAQAVSFQPFLSLTRNGDADVDLKLAV”, the protein production result was “failed”.

Consider “MKRREVLQAGMALGGLAGLGRALAQGGFTLTLVHTNDTHAHLEPVELTLSGEKTPVGGVARRVALFDRVWARAKNPLFLDAGDVFQGTLYFNQYRGLADRYFMHRLRYRAMALGNHEFDLGPGPLADFLKGARFKVVSANVDASREPRLKGLFAPYAVVVVGGERVGIIGLTTPDTREISNPGPTVAFLDPYESAQKAVYELLAKGVNKIVVLSHLGYGEDLKLARRLVGVQVIVGGHSHTLLGSFPHKELSPAGPYPTVVKNPEGKDVLVVQAWEWGKVVGLLEVTFDAKGELLAYKGEALLMTPEAAPEDFFAKEALLAYAQPVMALMQQVIAEAKVDLVGERAVVRRRESNLGNLITDGMLWKTRNAGTQIALQNGGGIRASIPKGPITVGKVYEVLPFGNTLVVMDLKGKEILAALENGVSQWENTAGRFLQVSGLRYAFDLSRPAGSRVVRVEVKTEKGYVPLDLEATYRVVVNNFIANGGDGFTVLKEAQGYRVDTGFSDAESFMDYLKELKVVEAGLEGRIEVLNEPKGERPAYFAYRVPGLVGV”, for which the protein production result is recorded as “not failed”.

As for “MKRRYSILIILLVAIFYRMITFRFKYLLGYDPYFHLAYIEEVNKVGKWINFLTFAGGPWGYQVKLFHPLGLWMTPLYLYKLLKVFGVSLTTTFKITPVIFGVLTVIFLYLSLLKLYDEKRAFFGGFFLAISYGHVFRSMANYYRGDNYMLFWYSVALLGISLALGIKKGKWKYKRLIFYTLPVLASGFSAIFWQAYYPIFAFLLSNALLLAVGAFILKKDKYLLDSIILILSTAFGVLLANYLGGIFGYGMLGYAKWLGKSVAKKLGLEFGYLKDVYLILHLKYLVPISLSFVLVLILLGFLTKDIRIRSLFLGIASFIGIIILFKRFEALKELSTGFGIFKEAPILETQPTSFKDLWAAFSLSFFLTPLFFIRFKKPRVEDFLTLGLIIPSVYMLKTWTRFLFIGSMAIAIMSGIGIVELYEAIKPRLNGKKALATGIITLVILPGVIAGLSFKEVCSLHPEMNEAWERALKWLKNNSNENDVILAWWDWGHFITYYARRSPIAQGGPSVGVALYLLGKLNENWAINLGVDYVIVSYYDFLKFGAILSTANLSKRYNIRGYGLVVLPLRASTGALIFENRGYRAIVRHDKSWNAVIIYNGQMIYPRKLYVEHKEGVQEIKPPESNSNTYLYVNLNYGYAIFMNGNAFNTTLVRLFITPEKPYKLVYSDGGLIKIFKLEHPNVKVERRESNVILNFENGTSLGLYFFLDNGTMVLSKWYNVKGKNEFIVPKVNASVARYVLKRGKKVVDRGVFRLSYN”, the protein production entry is on record as “failed”.

Consider “MKRSFSMMTDKRKLHRKKMKRKKRRRRLMFGCLLLFLVLAASGLGYASFLMHKMKTAMNEAYEEIGAKKNTGDHLDPKKDSFTVLFIGIDDSKTRNFKSDTRSDALILAAFNADTQLVKMVSIPRDSYVYIPCEDKYDKITHAHAYGGTKCTIESIERLFDIPIDYYVKMNFYAFIDVVDALGGIEVEVPYNIREKDAEDNRNAIVLKKGYQHLNGEEALALARTRKKDNDIERGKRQQQILQAILKKASHAGSISKYDDVIEAIGSNMKTNFTFDDIKALIYYVSTGNPLQTESLVLQGTDDNEGVYYYRLDEESVQQISDALRSQLHASAGTQLEKERN”, for which the protein production entry is listed as “failed”.

As for “MKRSLRVGSVAGIGIFLHWTFLLLVAAIFAYYYVQSQSLGAALSGMGLILGVFVCVILHELGHALTARRFGVPTRSITLYPIGGLARLERIPSEPMKEFWIAIGGPAVNVVIAFALALVLLVTGGTLAPVALEAPGSHALASLMWINAVLAVFNMLPAFPMDGGRVLRALLALRWDYAQATQTAANVGQGMAVLFGLIGIMTWNPVLLFIALFVYVGAQQESKQAMYRAFTEGTPVREAMVTRFATLTVDDTLDDAVDALLAGTDHDFPVLEAGTVVGLLRRKQLIQALSEHGRDTPVAEVADADCFTTAPSAPLDEVFQQMNARSCSTVPVVDGGQLVGLLTLENVGELIMVSSALETRSHSRVPRDQLSEAPLRERPDGAASSGAPPVP”, the protein production entry is given as “failed”.

“MKRTGILLVNLGTPKDSSKTEVRKYLKTFLSDRRVIKIHPIIWKPILNGIILNIRPKKSAKLYQKICTENGFPLLEYTEKQMENLKNICPEVEVTIGMSYSEPSIETALDTLLSKEIEELNVIPMYPQYSGTTVGSVFDSVMNYFIKSDRIVDIKFIRSFYNNPQYIDYFSKKINEALNESPIDAIVFSYHGIPMSYVKDGDNYPKECTKTTKLIMDKLGDIRYYQTYQSKFGPSEWLKPATDDTLKKLPSKGIKNILIVAPGFVVDCLETIEELEHENRNYFLENGGEVYKYVHPFNGDIEFAKLVKDIISL”: the protein production entry is on record as “failed”.
